Numbering of substitutions follows the chain as printed. Blank lines part the entries; values can stand above or below the molecule they belong to.
Assays:
[1] = tested on: HIV; conditions: greater activity; cited from earlier work
[2] = biological target: T1, murine membrane-bound B Lymphocyte Stimulator on P388 plasma membranes (Mus musculus, UniProt Q9WU72); test: Competition ELISA on P388 plasma membranes; type: binding; conditions: phage scFv; for competition of P388 plasma membrane binding by HIS-tagged B Lymphocyte Stimulator: human competitor; for recognition of P388 plasma membranes: membranes coated at 10 μg/ml
T1 construct: endogenous in cells; host or cells: P388.D1 cells, plasma membrane fraction coated on plates
Experimental: The ability of the 5 scFvs listed in Table 8 to also recognize murine membrane-bound B Lymphocyte Stimulator was determined using a competition ELISA. This assay assesses the ability of test phage scFvs to bind to the membrane-bound form of B Lymphocyte Stimulator on the murine cell line, P388, plasma membranes in the presence of different forms of competing human B Lymphocyte Stimulator. Competing B Lymphocyte Stimulator was either presented as the His-tagged form of B Lymphocyte Stimulator, or soluble B Lymphocyte Stimulator. ScFvs that recognize mouse membrane-bound B Lymphocyte Stimulator would give an ELISA signal on the P388 plasma membranes that is competed out by pre-incubation with HIS-tagged B Lymphocyte Stimulator but not by pre-incubation with soluble B Lymphocyte Stimulator.
P388.D1 cells are a mouse monocyte-macrophage like cell line. They were cultured in L15 medium supplemented with 2 mM L-glutamine, 10% CS, 10U penicillin, 100 µg/ml streptomycin (all reagents from Sigma). Cells were split 1:4 every 3-4 days to maintain a cell density of 2−8×10^5 per ml. A fresh aliquot of cells was thawed from liquid nitrogen every 6 weeks. Plasma membrane fractions were prepared as described in Example 2.
P388 plasma membranes ([…] per well) were coated at 10 μg/ml in PBS onto Falcon 96-well plates overnight at 4° C. The method is otherwise essentially as described Example 16.

[3] = biological target: mouse B Lymphocyte Stimulator (Mus musculus, UniProt Q9WU72); test: Phage ELISA on immobilized mouse B Lymphocyte Stimulator; type: binding; conditions: phage scFv; antigen coated at 1 μg/ml
Experimental: To determine the specificity of the 48 scFvs, a phage ELISA was performed against human and mouse B Lymphocyte Stimulator, and a panel of related and unrelated human antigens: Fas ligand, TRAIL, TNFα, TNFβ, and PBS, The: Fas ligand, TRAIL, TNFα, and TNFβ antigens were obtained from R&D Systems, Minneapolis, Minn., Individual E. coli colonies containing phagemid were inoculated into 5 ml 2YTAG and incubated at 37° C. for 4 hours, shaking. M13KO7 helper phage (Pharmacia) was added to each tube to a MOI of 10 and incubated […] 1 hour, the first 30 minutes static and the final 30 minutes with gentle shaking. Cells were pelleted by centrifugation at 3,500 rpm for 10 minutes and the supernatant discarded. Cell pellets were resuspended in 5 ml 2TYAK and incubated at 30° C. overnight with shaking. The next day, the cells were pelleted by centrifugation at 3,500 rpm for 10 minutes. The phage-containing supernatant (5 ml) was carefully transferred to a fresh tube, 1 ml of 6MPBS was added, and the tube was incubated at room temperature for 1 hour to pre-block the phage prior to ELISA.
All antigens were coated at 1 μg/ml. ELISAs were performed essentially as described in Example 2. The only exception to this being the detection of phage antibody binding to mouse B Lymphocyte Stimulator where the step involving incubation with the HRP-labelled anti-mouse polymer was omitted. Binding to mouse B Lymphocyte Stimulator was detected with TMB as in Example 2.
To determine the specificity of the 33 scFvs, a phage ELISA was performed as described in Example 4 against human and mouse B Lymphocyte Stimulator, and a panel of related human antigens: TRAIL, LIGHT, TNFα, TNFβ, and an uncoated well (PBS only).

T1 sequence (Q9WU72 whole entry): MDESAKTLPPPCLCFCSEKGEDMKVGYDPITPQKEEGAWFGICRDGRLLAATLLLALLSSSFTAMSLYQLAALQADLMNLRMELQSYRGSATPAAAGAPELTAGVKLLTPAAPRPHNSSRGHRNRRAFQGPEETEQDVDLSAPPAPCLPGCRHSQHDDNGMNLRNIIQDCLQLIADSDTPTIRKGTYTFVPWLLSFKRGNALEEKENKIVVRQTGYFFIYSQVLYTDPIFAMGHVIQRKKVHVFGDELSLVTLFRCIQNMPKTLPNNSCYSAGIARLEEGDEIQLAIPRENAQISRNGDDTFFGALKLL
Chain of mouse B Lymphocyte Stimulator (Q9WU72 127-309 limits assumed): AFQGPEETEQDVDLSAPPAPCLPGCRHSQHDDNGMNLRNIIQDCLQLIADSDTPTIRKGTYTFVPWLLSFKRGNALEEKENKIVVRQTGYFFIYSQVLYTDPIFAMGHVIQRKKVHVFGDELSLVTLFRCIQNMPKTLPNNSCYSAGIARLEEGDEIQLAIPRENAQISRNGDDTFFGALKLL

competition of P388 plasma membrane binding by HIS-tagged B Lymphocyte Stimulator [2]: competed out
recognition of P388 plasma membranes [2]: recognize
B1: I082H08: scFv, panel 3, binds membrane-bound B Lymphocyte Stimulator (protein, listed as Homo sapiens)
scFv: EVQLVESGGGLVQPGGSLRLSCAASGFTFSDYGMHWVRQRPGKGLEWIAFIGSDGSNKYYGDTVKGRFTISRDNAKNSLYLQMNSLRAEGTAVYYCARDWDMDVWGQGTMVTVSSGGGGSGGGGSGGGGSSHVILTQPRSVSGSPGQSVTISCTGTSSDVGGYHYVSWYQQHPGKAPRLMIYEVTKRPSGVSNRFSGSKSGNTASLTISGVQAEDEADYYCSSYTSASTVIFGGGTKLTVLG

competition of P388 plasma membrane binding by HIS-tagged B Lymphocyte Stimulator [2]: competed out
recognition of P388 plasma membranes [2]: recognize
B2: I099D03: scFv, panel 3, binds membrane-bound B Lymphocyte Stimulator (protein, listed as Homo sapiens)
scFv: QVQLVQSGAEVKKPGASVRVSCKSSGYTFTNYGISWVRQAPGQGLEWMGWISNNNGKTYYAQKVQGRVTMTTDTSTSTDYMELRGLRSDDTAIYYCARDNGGGTIGFDYWGRGTLVTVSSGGGGSGGGGSGGGGSAQAVLTQPSSVSGAPGQRVTMSCTGSSSNIGAGYDVHWYQQLPGTAPKLLIYDNTNRPSGVPDRFSGSRSGTSASLAITGLQAEDEADYFCQSYDITLSAVFGTGTKVTVLG

competition of P388 plasma membrane binding by HIS-tagged B Lymphocyte Stimulator [2]: competed out
recognition of P388 plasma membranes [2]: recognize
B4: I079E02: scFv, panel 3, binds membrane-bound B Lymphocyte Stimulator (protein, listed as Homo sapiens)
scFv: QVQLVQSGAEVKKPGSSVKVSCKASGGTFSSYAISWVRQAPGQGLEWMGGIIPIFGTANYAQKFQGRVTITADKSTSTAYMELSSLRSDDTAVYYCARDSGSYYYDAFDIWGKGTMVTVSSGGGGSGGGGSGGGGSDIVMTQSPSTLSASVGDRVTITCRASQGISSWLAWYQQKPGKAPKLLIYAASSLQSGVPSRFSGSGSGTDFTLTISSLQPEDFATYYCQQANSFPLTFGGGTKVEIKR

binding to immobilized mouse B Lymphocyte Stimulator [3]: did not bind
B6: I037E12: scFv, panel 1, binds soluble and membrane-bound B Lymphocyte Stimulator (protein, listed as Homo sapiens)
scFv: EVQLVQSGAEVKKPGASVKVSCKASGYTFTNYGITWVRQAPGQGLEWMGWISAYNGNRNYAQKLQGRVTMTTDTSTSTAYMELRSLRSDDTAVYYCVRDGIDILLVPAALMDVWGKGTLVTVSSGGGGSGGGGSGGGGSQSVLTQPASVSGSPGQSITISCTGTSSDVGGYNYVSWYQQHPGKAPKLMIYEGNKRPSGVSNRFSGSKSGNTASLTISGLQAEDEADYYCSSYTTRSTRVFGGGTKLTVLG

The remaining lines, values behind:

Molecule: CC[C@H]1C(=O)Nc2ccc(F)cc2N1C(=O)OC(C)C [GW-420867X]
activity relative to HBY097 [1]: 25 fold

B3: I008C03: scFv, panel 1, binds soluble and membrane-bound B Lymphocyte Stimulator (protein, listed as Homo sapiens)
scFv: QMQLVRSGGGVVQPGRSLRLSCAASGFTFSSYGMHWVRQAPGKGLEWVSVTYSGGNTNYADSVRGRFTISRDNSKNTLYLQMNSLRAEDTAVYYCAREGSYDILTGYYVGVGRMDVWGKGTLVTVSSGGGGSGGGGSGGGGSSELTQDPAVSVALGQTVRITCQGDSLRSYYTNWFQQKPGQAPLLVVYAKNKRPSGIPDRFSGSSSGNTASLTITGAQAEDEADYYCNSRDSSGNHVVFGGGTKLTVLG
binding to immobilized mouse B Lymphocyte Stimulator [3]: did not bind

B5: I037E07: scFv, panel 1, binds soluble and membrane-bound B Lymphocyte Stimulator (protein, listed as Homo sapiens)
scFv: B6 scFv with E1Q, K116R, L119M, N193S
binding to immobilized mouse B Lymphocyte Stimulator [3]: did not bind

From patent US7879328B2 (Human Genome Sciences, Inc., priority 2000, dated 2011)
